# Laboratory results published in publication PMC4434771.
# Assays:
# [1] = target: human neonatal Fc receptor (FcRn), heterodimer of alpha-FcRn and beta2 microglobulin (human) (UniProt P55899); test: FcRn affinity chromatography
# [2] = target: human neonatal Fc receptor (FcRn), heterodimer of alpha-FcRn and beta2 microglobulin (human) (UniProt P55899); test: SPR
FcRn column retention time [1],FcRn column elution pH [1],Rel. KD (KD normalised to the KD of ustekinumab) [2],Substance
92.4 min,–,–,mAb 3 (ustekinumab HC + briakinumab LC) (from UniProt P01857 2-107) (antibody)
93.7 min,7.9 pH,–,briakinumab (antibody)
85.1 min,–,0.9,mAb 5 (ustekinumab CDRs on briakinumab) (antibody)
84.3 min,–,1,mAb 1 (ustekinumab Fv + briakinumab constant domains) (antibody)
85.7 min,–,–,IdeS-cleaved Fc region of briakinumab (domain or fragment)
85.2 min,–,–,IdeS-cleaved Fc region of ustekinumab (domain or fragment)
